# In US20080233118A1 (Novartis, published 2008):
# B1: M-CSF-specific murine antibody RX1 (antibody, V domains shown)
# VH: DVQLQESGPGLVKPSQSLSLTCTVTDYSITSDYAWNWIRQFPGNKLEWMGYISYSGSTSYNPSLKSRISITRDTSKNQFFLQLNSVTTEDTATYYCASFDYAHAMDYWGQGTSVTVSS
# VL: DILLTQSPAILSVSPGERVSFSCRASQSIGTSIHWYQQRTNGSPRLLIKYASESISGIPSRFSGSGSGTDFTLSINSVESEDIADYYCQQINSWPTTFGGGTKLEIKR
# Biological target: T1, human M-CSF (macrophage colony stimulating factor) (human, UniProt P09603 33-190, limits assumed)
# T1 sequence: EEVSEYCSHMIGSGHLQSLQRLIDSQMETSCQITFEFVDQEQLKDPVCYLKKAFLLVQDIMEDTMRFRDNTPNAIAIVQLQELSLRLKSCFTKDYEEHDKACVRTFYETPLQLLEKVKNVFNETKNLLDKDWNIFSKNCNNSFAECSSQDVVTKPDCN
# Test: cell-based or functional assay
binder,measurement,value
B1,EC50 of M-CSF neutralization,2 ng/mL
